Data: the nanobody polyreactivity screen of Harvey et al. (2022)

Experiment: yeast display, Sf9 membrane polyspecificity reagent, FACS + sequencing; frameworks hold sequencing errors
How it was run: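 Nanobodies came from a synthetic yeast display library in Saccharomyces cerevisiae BJ5465, induced with galactose for 36–48 hours and stained for 1 hour at 4 °C with 10% biotinylated, detergent-solubilized Sf9 membrane reagent. Cells were enriched on streptavidin microbeads and then FACS-sorted, with low and high (top ~1%) gates set on anti-HA fluorescence for expression and streptavidin fluorescence for reagent binding. Each polyreactivity label reflects the gate a clone came from. Genes were amplified by colony PCR, sequenced by MiSeq 2 × 250 and filtered by CDR length.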

| Sequence | polyreactivity (PSR sort gate) |
| --- | --- |
| QVQLVESGGGLVQAGGSLRLSCAASGFILGGYAMGWYRQAPGKERELVAAISWSSGSTYYADSVKGRFTISRDNAKNTVYLQMNSLIPEDTAVYYCAAVGAYDYWGQGTQVTVSS | low polyreactivity |
| QVQLVESGGGLVQAGGSLRLSCAAYGIIFTDYAMGWYRQAPGKERELVAANSSGGGSTYYADSVKGRFTISRDNAKNTVYLQMNSLKPEDTAVYYFAAQSSGSYGFDHWGQGTQVTVSS | high polyreactivity |
| QVQLVDTGGGLVQAGGSLRLSCAASGSIFHNNSRGWYRQATGKERELVAAIRRSGGSTSYADSVKGRFTISLDNAKNTVYLQMNSLKPEDTAVYYCNKRFVRFSPEYGYWGQGNQVTVSS | low polyreactivity |
| QVQLVESGGGLVQAGGSLRLSCAASGRIFQPYAMGWYRPAPGKERELVAVITSGGSTNYADSVKGRFTISRDNAKNTVYLQMNSLKPEDTAVYYCNAVRTVNDYHYDYWGQGTQVTVSS | high polyreactivity |
| QVQLVESGGGLVQAGGSLRLSCSASGNNFESYGMGWYRQAPGKERELVATINTSSGSTNYADSVKGRFTISRDNAKNTVYVQMNSLKPEDTAVYYCAAVFVEQGEDDYWGQGTQVTVSS | low polyreactivity |
| QVQLVESGGGLVQAGGSLRLSCAASGSIFGVNDMGWYRQAPGKERELVAGISSGGSTYYADSVKGRFTISRDNAKNTVYLQMNSLKPEDTAVYYCAKPYYDGRTHFDSWGQGTQVTVSS | low polyreactivity |
| QVQLVESGGGLVQAGGSLRLSCAASGRIFDNYGMGWYRQAPGKERELVAAISSGGGRYYADSVTGRFTISRDNAKNTVYFQMHSLKPEDTAVYYCAKDPKYHLSGGYDYWGQGTQVTVSS | low polyreactivity |
| QVQLVESGGGLVQAGGSLRLSCAASGNIFPYYAMGWYRQAPGKERELVAVISYGGGNTRYADSVKGRFTISRDNAKNTVYLQMNSLIPEDTAVYYCAARRWGAAPRPYEGYYWGQGSQVTVSS | low polyreactivity |
| QVQLVESGGGLVQAGGSLRLSCAASGFTFCKYTMGWYRQAPGKERELVAAITNSGTSTYYADSVKGRFTISRDNAKNTVYLQMNSLKPEDTAVYYCARDNEPDYYSYPYDYWGQGTQVTVSS | low polyreactivity |
| QEQLVESGGGLVQAGGSLRISCAASGFIFGFYAMGWYRQAPGKERELVAAISWSAGSTYFADSVMGRFTISRDNAKNTVYLQMYSLKPEDTAVYYCAAYFDFRDDAVTYDYWGQGTQVTVSS | low polyreactivity |
| QVQLVDSGGGLVQAGGSLRLSCAASGSTFRGYAMGWYRQSPGKERELVAAITGSAGSTYYADSVKGRFTISRDNAKNTVYLQMNSLKPEDTAVYYCAAATSYRRYYYIYNYWGQGTQVTVSS | high polyreactivity |
| QVHLVESGGGLVQAGASLRLSCAASGSIFVGYAMGWYRQAPGKERELVASISSGDDTYADSVKGRFTISRDNAKNTVYLQMNSLKPEDTAVYYCAKDYISVDWAYDYWGQGTQVTVSS | low polyreactivity |
| QVQLVESGGGLVQAGGSLRLSCAASGSIFFYNAMGWYRQAPGKERELVAAITTRGGSTYYADSVKGRFTISRDNAKNTVYLQMNSLKPEATAVYYCARSSRGKLVYWGQGTQVTVSS | low polyreactivity |
| QVQLVESGGGLVQAGGSLRLSCAASGSTFQVNAMGWYRQAPGKERELVASISGGSSTNYADSVKGRFTISRDNAKNTVYFQMNSLKPEDTAVYYCAADYLSGLRVAYDYWGQGTQVTVSS | low polyreactivity |
| QVQLVESGGRLVQAGGSLRLSCAASGHIFFYYTMGRYRPGPGKERELVAGITIGGSTNYADSVKGRFTISRDNAKNTVYLLMNSLKPADTAVYYCNVVKYVYISSYWEYYYWGQGAQVTVSS | low polyreactivity |
| QVQLVESGGGLVQAGGSLRLSCAASGSILQSYAMGWYRQAPGKERELVAAITYRGGRTYYADSVKGRFTISRDNAKNTVYLQMNSLKPEDTAVYYCAADQQRSIDAPYGYWGQGTQVTVSS | low polyreactivity |
| QVHLVESGGGLVQAGGSLRLSCAASGITFYGNTMGWYRQTPGKERELVARISSGGSTNYAESVKGRFTISRVNAKNTVYLQMNSLKPEDTAVSYCAVKQYGFIWSGYGYDYWGQGSQVTVSS | high polyreactivity |
| QVQLGESGGGLVQAGGSLRLSCAASGSTFVWYAMGWYRQAPGKERELVANISGSGGSTYYADSVKGRFTISRDNAKNTVYLQMNSLKPEDNAVYYCAAQRQWRTQYDDDYWGQGTQVTVSS | low polyreactivity |
| QVQLVESGGGLVQAGGSLRLSCAASGRTFWYYTMGWYRQAPGKERELVAAITRRGGSTYYADSVKGRFTISRDNAKNTVYLQMNSLKPEDTAVYYCARGGSRLTQGWLVTPYDYDYWGQGTQVTVSS | high polyreactivity |
| QVQLEESGGGLVQAGGSLRLSSAASGFIYVYAMGWYRQAPGKVRELVAAITATGDSTYYADSVKGRFTISRDNAKNTVYLQMNSLKPEDTAVYYCARNVNAQKVLGGFDSWGQGTQVNVSS | low polyreactivity |
| QVQLVESGGGLVQAGGSLRLSCAASGSIFAVNAMGWYRQAPGKERELVASITSGGSTNYADSVKGRFTISRDNAKNTVYLQMNSLKPEDTAVYYCNADRVRAVSRYDYWGQGTQLTVSS | low polyreactivity |
| QVQLVESGGGLVQAGGSLRLSCAASGITFLPYARGWYRQAPGKERELVAAITRGGGSTYADSVKGRFTISRDNAKNTVYLQMNSLKPEDTAVYYCAKRYGRVSWYEDYDYWGQGTQVTVSS | low polyreactivity |

| Sequence | polyreactivity (PSR sort gate) |
| --- | --- |
| QVQLVESGGGLVQAGGSLRLSCAASGPILGQYAMGWYRQAPGKDRELVAAITYSGGRTYYADSVKGRFTLSRDNAKNTVYLQMNSLKPEDTAVYYCAARGRASVERRGGYYYWGQGTQVTVSS | high polyreactivity |
| QVQLVESGGGLVQAGGSLRLSCAASGSIFRDYVMGWYRQAPGKERELVAAISGNDGSTYYADSVKGRFTISRDNAKNTVYLQMNSLKPEDTAVYYCNADEASTVPLFYSYLDFDYWGQGTQVTVSS | low polyreactivity |
| QVQLVESGGGLVQAGGSLRLSCAASGFTFRRNAMGWYRQAPGKERELVASITINGGSTTYADSVKGRFTISRDNAKNTVYLQMNSLKPEDTAVYYCNKRYRTYRSVPQYEYWGQGTQVTVSS | high polyreactivity |
| QFQLVESGGGLVQAGGSLRLSCAASGFTFDDYDMGWYRQAPGKERELVAAISWSGGSTYYADSVKGRFTISRDNSKNTVYLQMNSLKPEDTAVYYCAAERSYGGFDYWGQGTQVSVSS | low polyreactivity |
| QVQLVESGGGLVQAGGSLRLSCAASGSIFEVNAMGWYTQAPGKERELVATITYSGGSTYYADSVKGRFTISRDNAKNTVYLQMNSLKPEDTAVYYCATDYVDWELYIYDYWGQGTQVTVSS | low polyreactivity |
| QVQLVESVVGLVQAGGSLRLICAASGIIISRYAMECYRQAPGKERELVAAITRSGGDTYYADSVKGRFTISRDNAKNTVYLQMNSLKPEDTAVYYCAASSSWYEDHDYWGQGTQVTVSS | low polyreactivity |
| QVQLVESGGGLFQAGGSLRLICAASGSTFLNNAMGWYRQAPGKERELVAAISYRGGSTYYADSVKGRFTISRDNAKNTVYLQMNSLKPEDTAVYYCAAEVTRFWWRSPYDYNYWGQGTQVTVSS | high polyreactivity |
| QVQLVESGGGLVQAGGSLRLSCAASGSIFFDGNAMGWYRQAPGKERELVAAISVSGGSTYYADSVKGRFTISRDNAKNTVYLQMNSLKPEDTAVYYCAKYPSKSFVPGDYWGQGTQVTVSS | low polyreactivity |
| QVQLVESGGGLVQAGGSLRLSCAASGFTFNYYAMGWYRQAHGKEREFVAAISRGGGRTYYADSVKGRFTISRDNAKNTVYLQMNSLKPEDTAVYYCAAQSVPYAYRLASYDYWGQGTQVTVSS | high polyreactivity |
| QVQLVESGGGLVQAGGSLRLSCAASGSIIQVYAMGWYRQAPGKERELVASITRTGGSTYYADSVKGSFTISRDNAKNTVYLQMNSLKPEDTAVYYCAARRVTSPFGSDSWGQGTQVTVSS | low polyreactivity |
| QVQLIESGGGLVQAGGSLRLSCAASGSSLYYYALGWYRQAPGKEREWVAAISSSDGRTYYADSVKGRFTISRDNAKNTVYVQMNSLKPEDTAVYYCNAAVYAHRYIYGFDYWGQGTQVTVSS | high polyreactivity |
| QVQLVESGGGLVQAGGSLRLSCAASGSIITWYAMGWYRQAPGKERELVAAISNSDSSTYYADSVKGRFTISRDNAKNTVYLQMNILKPEDTAVYYCAAEYGLAWYNFEHWGQGTQVTVSS | high polyreactivity |
| QVQLVEAGGGLVQAGGSLRLSCAASGLIFWAYAMGWYRQAPGKERELVAAINWRGGSTYYADSVKGRFTISRDNAKNTVDLQMNSLKPEDTAVYYCADDSYYDEYDYLGQGTQVTVSS | low polyreactivity |
| QVQLVESGGGLVQAGGSLRLSCAASGSIFSYYAMGWYRQAPGKERELVAAITRSGSKNYADSVKGRFTISRDNAKNTVYLQMNSLKPEDTAVYYCAAETDESDWYYYWGQGTQVTVSS | high polyreactivity |
| QVQLVESGGGLVPAGGSLRLSCAASGRSLSRYTMGWYRQAPGKERELVAAISTSGSTYYADSVKGRFTISRDNAKNTVYLQMNSLKPEDTAVYFCNAVRRYLQYATGYAYWGQGTQVTVSS | high polyreactivity |
| QVQLVESGGGLVQAGGSLRLSCAASGSIIFNNAMGWYRQAPGKERELVAAITTGGSTYYADSVKGRFTISRDNAKNTVYLQMNSLKPEDTAVYYCAAVVVYPYRLGYDYWGQGTQVTVSS | low polyreactivity |
| QVQLVESGGGLVQAGGSLRLSCAASGLTFGWNAMGWYRQAPGKERELVAGITSDTITHYADSVKGRFTISRDNAKNTVYLQMNSLKPEDTAVYYCAVPRGVASLQKVEFGYWGQGTQVTVSS | low polyreactivity |
| QVQLVESGGGLLQAGGSLRISCAASGRIFYAKAMGRYRQAPGKERELVAGISSGGITNYADSVKGRFTISRDNAKNTVYLQMNSLKPEDTAVYYCAVESWNRWRNRNDYWGQGTQVSVSS | low polyreactivity |
| QVQLAESGGGLVQAGGSLRLSCAASGRIFSGYAMGWSRQAPGKERELVAAITSVGSTNYADSVKGRFTISRDNAKNTVYLQMNSLKPEDTAVYYCAAKFVRPYRMYYWGQGTQVTVSS | high polyreactivity |
| QVQLVESGVGLVQAAGSLRLSCAASGRIFYHYTMGWYRQAPGKERELVAAITSGGSTYYADSVKGRFTISRDNAKNTVYLQMNSLKPEDTAVYYCAAEGYTYYPVYSTRMYYWGQGTQVTVSS | low polyreactivity |
| QVQLVESGGGLVQAGGSLRLSCAASGNIFQRYAMGWYRQAPGKERDLVAAISYSGARTYYADSVKGRFTISRDNAKNTDYLQMNSLKPEDTAVYYCATYGGLTKFRLAYDYWGQGTQVTVSS | high polyreactivity |
